B1: Double-strand break repair protein rad32 (Schizosaccharomyces pombe (strain ATCC 38366 / 972)), Q09683 (parent)
chain: MPNDPSDMNNELHNENTIRILISSDPHVGYGEKDPVRGNDSFVSFNEILEIARERDVDMILLGGDIFHDNKPSRKALYQALRSLRLNCLGDKPCELELLSDTSLTTGDTAVCNINYLDPNINVAIPVFSIHGNHDDPSGDGRYSALDILQVTGLVNYFGRVPENDNIVVSPILLQKGFTKLALYGISNVRDERLYHSFRENKVKFLRPDLYRDEWFNLLTVHQNHSAHTPTSYLPESFIQDFYDFVLWGHEHECLIDGSYNPTQKFTVVQPGSTIATSLSPGETAPKHCGILNITGKDFHLEKIRLRTVRPFIMKDIILSEVSSIPPMVENKKEVLTYLISKVEEAITEANAQWYEAQGTVPVVENEKPPLPLIRLRVDYTGGYQTENPQRFSNRFVGRVANATDVVQFYLKKKYTRSKRNDGLYTSAVEDIKINSLRVESLVNEYLKTNRLECLPEDSLGEAVVNFVEKDDRDAIKECVETQLNKQINLLVKKRVTEENLEQEISSIINDLPKISTTKRKDYEELPEEVSETSINIAEHTPVLKHTSSLLDHHSPLATSSSEHEMEATPSPALLKKTNKRRELPSSLTKKNTRTPQRSKEVKKVPARKLSQSTKKSDKNTQSTLLFYDPSSTTEAQYLDNEDDEILDD
partner: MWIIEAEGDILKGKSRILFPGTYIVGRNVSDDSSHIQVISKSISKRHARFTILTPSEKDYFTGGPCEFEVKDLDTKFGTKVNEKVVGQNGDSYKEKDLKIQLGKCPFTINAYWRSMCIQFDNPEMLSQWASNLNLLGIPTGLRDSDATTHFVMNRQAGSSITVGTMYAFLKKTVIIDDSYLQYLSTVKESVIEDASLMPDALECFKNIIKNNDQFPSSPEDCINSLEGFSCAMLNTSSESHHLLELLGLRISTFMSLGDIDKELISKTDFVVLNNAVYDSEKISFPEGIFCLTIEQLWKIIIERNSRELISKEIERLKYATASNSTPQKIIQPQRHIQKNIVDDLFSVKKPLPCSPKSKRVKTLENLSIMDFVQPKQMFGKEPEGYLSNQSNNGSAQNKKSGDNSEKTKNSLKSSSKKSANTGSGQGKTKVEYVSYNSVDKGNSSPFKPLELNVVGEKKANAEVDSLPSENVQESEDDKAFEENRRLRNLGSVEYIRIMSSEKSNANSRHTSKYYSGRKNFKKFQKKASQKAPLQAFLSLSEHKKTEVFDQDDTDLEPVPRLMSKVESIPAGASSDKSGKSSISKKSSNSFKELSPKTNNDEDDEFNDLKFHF
B2: Double-strand break repair protein rad32 (Schizosaccharomyces pombe (strain ATCC 38366 / 972)), Q09683 (parent)
chain: B1 chain
partner: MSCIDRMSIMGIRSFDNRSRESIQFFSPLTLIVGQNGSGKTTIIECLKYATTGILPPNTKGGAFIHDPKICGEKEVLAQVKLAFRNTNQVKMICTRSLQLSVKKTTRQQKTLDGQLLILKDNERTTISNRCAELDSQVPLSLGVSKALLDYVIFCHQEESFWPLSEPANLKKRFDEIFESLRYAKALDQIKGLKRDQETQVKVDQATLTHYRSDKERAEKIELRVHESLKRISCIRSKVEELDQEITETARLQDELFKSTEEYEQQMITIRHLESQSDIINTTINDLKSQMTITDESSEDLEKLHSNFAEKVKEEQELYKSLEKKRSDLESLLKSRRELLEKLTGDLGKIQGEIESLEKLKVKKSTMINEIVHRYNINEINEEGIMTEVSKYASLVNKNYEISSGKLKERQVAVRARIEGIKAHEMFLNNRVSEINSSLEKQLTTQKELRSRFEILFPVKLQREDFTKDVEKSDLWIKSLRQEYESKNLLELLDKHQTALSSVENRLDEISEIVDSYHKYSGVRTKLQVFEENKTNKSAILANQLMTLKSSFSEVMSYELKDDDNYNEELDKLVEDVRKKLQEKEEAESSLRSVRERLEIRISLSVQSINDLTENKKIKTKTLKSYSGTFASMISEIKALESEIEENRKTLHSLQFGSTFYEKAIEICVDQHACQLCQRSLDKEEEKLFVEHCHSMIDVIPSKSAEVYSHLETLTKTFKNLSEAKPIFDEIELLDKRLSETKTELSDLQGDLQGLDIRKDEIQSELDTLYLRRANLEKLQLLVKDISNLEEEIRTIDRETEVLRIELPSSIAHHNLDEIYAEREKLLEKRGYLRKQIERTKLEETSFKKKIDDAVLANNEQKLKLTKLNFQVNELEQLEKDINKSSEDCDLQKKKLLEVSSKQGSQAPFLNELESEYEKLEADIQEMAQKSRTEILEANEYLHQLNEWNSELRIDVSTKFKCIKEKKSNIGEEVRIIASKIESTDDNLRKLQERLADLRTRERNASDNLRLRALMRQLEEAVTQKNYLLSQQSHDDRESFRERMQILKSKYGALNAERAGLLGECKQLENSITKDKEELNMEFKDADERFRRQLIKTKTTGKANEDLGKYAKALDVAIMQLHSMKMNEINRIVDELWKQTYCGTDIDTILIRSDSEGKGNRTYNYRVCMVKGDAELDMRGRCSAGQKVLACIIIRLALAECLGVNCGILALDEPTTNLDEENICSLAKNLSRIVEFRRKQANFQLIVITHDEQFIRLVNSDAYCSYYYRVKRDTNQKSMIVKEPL

The variants in one assay derive from B1. Particulars: with nbs1_schpo nbs1, O43070.
Take L77K;L154D: the “effect of a mutation on the interaction” value is recorded as “decreasing interaction”.

Another assay covers variants of B2. Particulars: with rad50_schpo rad50, Q9UTJ8.
On to L77K;L154D, for which the “effect of a mutation on the interaction” value is on record as “decreasing interaction”.

Source of the values: IntAct's records for PubMed 18854158.
